Assay results taken from patent US20020022718A1, “Genes identified as required for proliferation of E. coli” (priority 1999, published 2002).

B1: EcXA180: antisense clone insert to E. coli yjcF (nucleic acid, listed as Escherichia coli)
antisense: TGTGACAGAGTGGTTATCGTTAATCAGGCAAAGAGGGAAAAACATATTATTTAAACCATTATAGCGCATAAAATATCCTTATAATTAACAAGAAAGAAAAGGCATATTCTCTGCATTATCATTTTCTACGACTGTCAAAAATCGCTCATTTTTTAATGAGTTTATTTGTTTAATATTATGGGAAAAGGTGATGCATTTGGGAGAGGAAGAGTATTCCCCGGTCAGACGACCGGGGAAGGGG
B2: EcXA181: antisense clone insert to E. coli ppc (nucleic acid, listed as Escherichia coli)
antisense: CCCGGCTGGGTTTTTTCAAGTTTACGCAGGGGTGCGGGCGATCACTTCCGGGTTGCTGGCAGCTTCGCCTTTCGGCGAAATGCTGTGGT
B3: EcXA185: antisense clone insert to E. coli rpsK (nucleic acid, listed as Escherichia coli)
antisense: CCCTGACGATCAGTGATAGTCACGATGGTGTTGTTGAAAGAAGCATGGATATGAGCCACGCCGTCAG
B4: EcXA183: antisense clone insert to E. coli ftsI (nucleic acid, listed as Escherichia coli)
antisense: GTTAGTAAAGCCGATGAGGTGAGCAGTCACTTCGCCGGACGGATAGTAACGGCGAGACTCTTCACGCAGATGAATCCCCGGCAGTTTCAGTTTTTTGATGTAGTCCGCCATGTCAGGGTTCACCTGACGCGCCAGATAAATAAAGCGCCCTTTCGGGTTGGCGTTAATGCGGGCTGAAAGCTGATCCAG
B5: EcXA187: antisense clone insert to E. coli b2271 (nucleic acid, listed as Escherichia coli)
antisense: TNNCANNNNCNNNNNNNNNNNNNNNNCNCNNTNCCTAGANTNTCNANGTCTNCNCNCNCNTNNCCNNNCCCTTCNNNNCCNNNNANANGNNCNNCNCCCCCNNNCCCNNTTTTGTTTTGGAAANTCCGTTTCAGGAANAGCTTCTGAATCCCGANCGNTTGATAACTGNNGGCCAGAGTCATAATGCGCACCAATAATAATCAGCGGNCCATCGGCAGGACCATAATCAGCAACAATGNNNNGGTAGGGGCCACCCGTAATGGGGACCGTCCTGCGAGGTAACTCTGGCACCGCTACTGACAAAGACCTCTTTTATATATTCTGCGGGACCTATTCAGATTATCAATATTGTCNGGCACTACGTGGATGCACAAGTTTGTGTAAGATAACGAACTGNTTTTTCTAATTGCTCAGGACTTTGCGTGTCGGGGCCGTTGACGGTAATGCATTGACCCAGGGTTGGTAAAAAATAATCATAGGGAGTAAAAACACAAATAATATAATAAAAGCCAAGATTATTTTTTTCATATGCAAAATTATTAATGGGGTTGCGTTTGGTGAATCATTATNTTGCTATGGGTTTCGATATTGNGATTTTAATTAAAGATTAAGCANGGGATTATACCAAAAGA
modifications: misc_feature (1)...(632): n = A,T,C or G
notes: antisense clone insert to E. coli b2271
B6: EcXA182: antisense clone insert to E. coli tktA (nucleic acid, listed as Escherichia coli)
antisense: TCGCGAACACCGTAGTGGATGTAGTTACCCGCAGCATCTTCGTTGATTGCTTTAGAACCAGACCACAGGGTCAGGTTAGACGGCGCCAGGTCAGCAGAACCGCCGAGGAATTCCGGCAACAGCGGACCGAACGCTTCGAT
B7: EcXA186: antisense clone insert to E. coli yagG (nucleic acid, listed as Escherichia coli)
antisense: AGCAAAGCGAGCCGAACATGGTGGCGAGGCTGCCGTAAAGTAAAAACTGGGTCGCCAACTCCGGGTGATCCATCACGTATTTCACGAAGTAGAGCGTCGCCCCGCCGCGCACCACGTTGGAGCAGGTCGCCATCATCTTGAACGCGCACATGATGCGCCACTGGCTGTTGCCCAGC
B8: EcXA192: antisense clone insert to E. coli rbsC, rpsB (nucleic acid, listed as Escherichia coli)
antisense: AGCGCAACAGCGGAAACCAGGGTAGCCAGTTTTTTCATGTTCATATTCAAGATGTCCTGTAGTCGTTATTACTGCTTTTTGTTGTCTACCAGCACCGCCAGCAAAATCACCACCGCTTTGACGATCATCTGGTAATAGGAGGAAACACCTAACAAATTCAATCCATTATTAAGGAAGCCAAGAATTAATGCGCCGATCAACGTCCCAACAATGCGACCTTT
B9: EcXA184: antisense clone insert to E. coli cysC (nucleic acid, listed as Escherichia coli)
antisense: GCAGTTCACCGGCACGCGCTTTCTTATATAAGCCTTTGGGATCGCGGGCTTCGCAAATCGCCAGCGGCGTATCGACAAACACTTCGATAAAGCGCCCTTCTCCTACGCGTTCGCGAACCATCTGGCGTTCGGCGCGGTGTGGCGAGATAAATGCGGTCAGCACCACCAGTCCGGCTTCAACCATCAAATTCGCCACTTCACCGACGCGACGGATATTCTCTTTACGATCGGCATCGCTAAAACCGAGATCGCTGCATAATCCGTGGCGAACATTGTCGCCATCCAGCAGATACGTACTGACGCCGAGTTTATGTAACGCCTCCTCCAGCGCCCCGGCGACCGTTGAT

Tested on: Klebsiella pneumoniae
Experiment: Growth inhibition by induced E. coli antisense RNA in Klebsiella pneumoniae
Assay type: cell-based
Set-up: key: +: a positive in Table V below means that at least 10 fold more cells were required to observe a colony on the induced plate than on the non-induced plate; −: If there was no effect of antisense RNA expression in a microorganism, the clone is minus in Table V below
Settings: antisense RNA expression induced with IPTG, serial dilution plating
In short: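 An E. coli antisense fragment (b3052 portion), or other E. coli-inhibitory antisense clones, was expressed in each species on IPTG induction (1 mM). Serial 10-fold dilutions were spotted on selective agar with or without IPTG overnight. The score is the log difference in maximal colony-forming dilution, induced vs uninduced (0 = no effect; positive = at least 10-fold).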

| Molecule | Sensitivity of K. pneumoniae to antisense nucleic acid (growth inhibition, induced vs. uninduced) |
| --- | --- |
| B1 | − |
| B2 | − |
| B3 | − |
| B4 | − |
| B5 | + (a positive in Table V below means that at least 10 fold more cells were required to observe a colony on the induced plate than on the non-induced plate) |
| B6 | − |
| B7 | − |
| B8 | − |
| B9 | − |
